One may read the pKd as the Kd on a negative log10 scale, so that one unit is a factor of ten. Usually koff stands for the rate constant with which the complex falls apart. Low values mean a long-lived complex, high ones a short-lived complex. Usually kon stands for the second-order rate constant of association. Read a high kon as fast association.

pKd: −log10 of the molar value.

Results on two substances are retold here after article PMC5868266.

Test [1] has as its target equine C3b (horse (endogenous in equine plasma)). The test is described as follows: SPR; same injections as a1, steady-state binding model; for SCIN-A on eqC3b the concentrations were subsaturating, so the fit used a constant Rmax based on the eqSCIN/eqC3b interaction. On the technique in general: In SPR one partner is held on a chip, and binding of the other changes the refractive index at the surface.

The target in test [2] is human C3b (human) (UniProt P01024). The description is as above.
Test [3] shares this target. Description: SPR.
For test [4], the target named is equine alternative pathway C3 convertase (eqC3bBb) (horse (endogenous in equine plasma)).
Test [5] concerns the target equine C3b (horse (endogenous in equine plasma)). The test is described as follows: SPR; Biacore T200; biotinylated C3b captured on a neutravidin-coupled CMD-200 chip (eqC3b 3,000 RU, human C3b 4,200 RU); SCIN injected 2 min at 2.5-2,500 nM, dissociation 3 min; 25 °C; 20 mM HEPES pH 7.3, 140 mM NaCl, 0.005% Tween 20; 30 μl/min; triplicate; 1:1 kinetic model (KD = kd/ka).

The target in test [6] is human C3b (human) (UniProt P01024). The test is described as above.

In test [1], “staphylococcal complement inhibitor SCIN-A (natural protein)” gave a pKd of 4.54. This substance gave a pKd in test [2] of 6.85. In addition, in test [3], the pKd is 6.85, the koff came to 0.092 s⁻¹ and the on-rate constant (kon) came to 630000 M⁻¹ s⁻¹.

“equine staphylococcal complement inhibitor (eqSCIN) (natural protein)” displayed an inhibition of eqC3 cleavage (α-chain to α′) by fluid-phase eqC3bBb, eqSCIN 0.04-10 μM, densitometry of reducing SDS-PAGE in test [4] of 0.61 µM. For the same substance, the negative logarithm of the Kd (pKd) in test [1] was 6.66; in test [2] it was 6.52; in test [5], 7.21; in test [6] it was 6.64. The results for the koff in test [5] and in test [6] were 0.11 s⁻¹ and 0.13 s⁻¹, respectively. Also, the kon in test [5] stood at 1.8e+06 M⁻¹ s⁻¹; in test [6], 550000 M⁻¹ s⁻¹.
